# Data from paper PMC10352136 (2023).
# B1: CI-MPR_(2347–2375) peptide (bipartite sorting motif of the cation-independent mannose-6-phosphate receptor tail) (peptide)
# peptide: SNVSYKYSKVNKEEETDENETEWLMEEIQ
# Assays:
# [1] = target: T1, SNX1-SAH^3A:SNX5-SAH^3A heterodimer (human, UniProt Q13596 1-522; Q9Y5X3 1-404); experiment: ITC
# [2] = target: T2, SNX1-BT*:SNX5-BT* heterodimer (human, UniProt Q13596 1-522; Q9Y5X3 1-404); experiment: ITC
# [3] = target: T1, SNX1-SAH^3A:SNX5-SAH^3A heterodimer; experiment: ITC; representative single experiment
# [4] = target: T2, SNX1-BT*:SNX5-BT* heterodimer; experiment: ITC; representative single experiment
# T1 sequence (Q13596 whole entry, chain 1 of 2): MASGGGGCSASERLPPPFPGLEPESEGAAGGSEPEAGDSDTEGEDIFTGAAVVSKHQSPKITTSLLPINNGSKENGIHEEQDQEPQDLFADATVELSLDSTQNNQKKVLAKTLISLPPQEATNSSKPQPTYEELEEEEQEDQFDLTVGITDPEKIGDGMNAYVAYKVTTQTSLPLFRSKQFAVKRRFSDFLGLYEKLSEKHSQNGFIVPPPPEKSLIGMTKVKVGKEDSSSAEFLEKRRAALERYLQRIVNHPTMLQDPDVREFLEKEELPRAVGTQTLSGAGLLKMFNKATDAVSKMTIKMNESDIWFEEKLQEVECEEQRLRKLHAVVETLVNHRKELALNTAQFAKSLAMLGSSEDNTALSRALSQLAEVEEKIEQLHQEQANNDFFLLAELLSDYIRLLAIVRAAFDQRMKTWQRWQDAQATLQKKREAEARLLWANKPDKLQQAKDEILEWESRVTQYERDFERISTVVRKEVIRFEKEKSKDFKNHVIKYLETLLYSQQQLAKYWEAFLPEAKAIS
# T1 sequence (Q9Y5X3 whole entry, chain 2 of 2): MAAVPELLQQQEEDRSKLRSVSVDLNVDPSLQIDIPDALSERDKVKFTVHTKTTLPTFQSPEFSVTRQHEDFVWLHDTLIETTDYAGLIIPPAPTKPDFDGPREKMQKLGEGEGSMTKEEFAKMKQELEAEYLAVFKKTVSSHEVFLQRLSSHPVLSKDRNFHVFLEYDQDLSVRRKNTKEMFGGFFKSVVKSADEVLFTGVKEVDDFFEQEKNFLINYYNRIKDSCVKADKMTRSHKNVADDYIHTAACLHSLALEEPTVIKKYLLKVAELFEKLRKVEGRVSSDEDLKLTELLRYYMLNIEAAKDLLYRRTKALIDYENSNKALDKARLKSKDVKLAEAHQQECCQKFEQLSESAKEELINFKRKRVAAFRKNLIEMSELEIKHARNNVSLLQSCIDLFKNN
# T2 sequence (Q13596 whole entry, chain 1 of 2): as the sequence (Q13596 whole entry, chain 1 of 2) above
# T2 sequence (Q9Y5X3 whole entry, chain 2 of 2): as the sequence (Q9Y5X3 whole entry, chain 2 of 2) above
binder,measurement,setting,value
B1,Kd,[1],5.06 µM
same,Kd,[2],10.4 µM
same,Kd,[3],4.64 µM
same,Kd,[4],9.96 µM
